# Measurements reported in the supplement of paper PMC9112550, “Optimization of the antimicrobial peptide Bac7 by deep mutational scanning” (BMC Biology, 2022).
# System: Escherichia coli TOP10
# Test: shrunken log2 fold change of peptide-encoding DNA abundance (4.5 h post-induction vs induction); higher = less antimicrobial activity (less host growth inhibition)
# Conditions: time post-induction: 4.5 h; library: site-saturation at positions 5, 18, 19, 20
# 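Note: peptides expressed intracellularly from a pBAD plasmid library in pooled LB shake-flask culture, induced with 0.3% L-arabinose, DNA abundance read by NGS, three biological replicates, DESeq2 with apeglm shrinkage.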
row,Sequence,shrunken log2 fold change
1,RRIRGRPPRLPRPRPRPGSAPRP,0.972
2,RRIRARPPRLPRPRPRPYFWPRP,-0.0609
3,RRIRVRPPRLPRPRPRPVDIPRP,0.0216
4,RRIRARPPRLPRPRPRPNGYPRP,0.122
5,RRIRPRPPRLPRPRPRPPPLPRP,0.699
6,RRIRDRPPRLPRPRPRPYCEPRP,-0.42
7,RRIRNRPPRLPRPRPRPRFQPRP,0.0932
8,RRIRLRPPRLPRPRPRPCHGPRP,-0.0309
9,RRIRWRPPRLPRPRPRPPMAPRP,0.598
10,RRIRCRPPRLPRPRPRPAMKPRP,-0.104
11,RRIRQRPPRLPRPRPRPVVDPRP,-0.355
12,RRIRARPPRLPRPRPRPIPDPRP,0.604
13,RRIRKRPPRLPRPRPRPSFWPRP,0.299
14,RRIRIRPPRLPRPRPRPAKGPRP,-0.224
15,RRIRERPPRLPRPRPRPTGTPRP,-0.0482
16,RRIRLRPPRLPRPRPRPSNPPRP,-0.86
17,RRIRQRPPRLPRPRPRPNMIPRP,-0.209
18,RRIRERPPRLPRPRPRPTWKPRP,-0.012
19,RRIRFRPPRLPRPRPRPDTIPRP,-0.498
20,RRIRWRPPRLPRPRPRPQCNPRP,-0.0929

row,Sequence,shrunken log2 fold change
1,RRIRCRPPRLPRPRPRPVNSPRP,-0.418
2,RRIRHRPPRLPRPRPRPYSWPRP,-0.345
3,RRIRVRPPRLPRPRPRPWMMPRP,-0.0912
4,RRIRLRPPRLPRPRPRPATEPRP,0.149
5,RRIRPRPPRLPRPRPRPLHKPRP,-0.00927
6,RRIRLRPPRLPRPRPRPCEPPRP,0.023
7,RRIRRRPPRLPRPRPRPYMWPRP,-0.374
8,RRIRCRPPRLPRPRPRPYIDPRP,-1.39
9,RRIRFRPPRLPRPRPRPDMQPRP,-0.313
10,RRIRTRPPRLPRPRPRPTHEPRP,0.746
11,RRIRVRPPRLPRPRPRPVDDPRP,0.177
12,RRIRLRPPRLPRPRPRPSTKPRP,-0.0833
13,RRIRPRPPRLPRPRPRPELQPRP,0.345
14,RRIRFRPPRLPRPRPRPGAKPRP,0.118
15,RRIRYRPPRLPRPRPRPLQSPRP,0.00494
16,RRIRVRPPRLPRPRPRPYGTPRP,-0.13
17,RRIRFRPPRLPRPRPRPCQPPRP,-0.134
18,RRIRGRPPRLPRPRPRPSSPPRP,-0.0496
19,RRIRLRPPRLPRPRPRPQFSPRP,-0.907
20,RRIRHRPPRLPRPRPRPWHYPRP,0.137

row,Sequence,shrunken log2 fold change
1,RRIRNRPPRLPRPRPRPVVMPRP,0.00659
2,RRIRGRPPRLPRPRPRPLVPPRP,0.417
3,RRIRLRPPRLPRPRPRPSCIPRP,-0.461
4,RRIRYRPPRLPRPRPRPHWCPRP,-0.0867
5,RRIRIRPPRLPRPRPRPKGKPRP,-0.162
6,RRIRFRPPRLPRPRPRPHPDPRP,-0.262
7,RRIRWRPPRLPRPRPRPVNSPRP,0.0541
8,RRIRHRPPRLPRPRPRPEWGPRP,0.209
9,RRIRKRPPRLPRPRPRPNVRPRP,-0.0184
10,RRIRQRPPRLPRPRPRPAWWPRP,0.95
11,RRIRKRPPRLPRPRPRPMDTPRP,0.336
12,RRIRYRPPRLPRPRPRPANQPRP,-0.131
13,RRIRMRPPRLPRPRPRPCFAPRP,0.431
14,RRIRSRPPRLPRPRPRPDAAPRP,1.05
15,RRIRGRPPRLPRPRPRPHLSPRP,0.283
16,RRIRRRPPRLPRPRPRPNMNPRP,-0.463
17,RRIRCRPPRLPRPRPRPRAHPRP,0.361
18,RRIRTRPPRLPRPRPRPTCIPRP,-0.503
19,RRIRCRPPRLPRPRPRPWLNPRP,-0.752
20,RRIRMRPPRLPRPRPRPSFGPRP,0.0121
